Laboratory results reported in the RNAGym collection of RNA variant scans (doi:10.1073/pnas.2313332121).
Variants at the floor of the assay were thinned out.

B1: TPR 5TU (parent)
chain: GGAUCUUCUCGAUCUAACAAAAAAGACAAAUCUGCCACAAAGCUUGAGAGCAUCUUCGGAUGCAGAGGCGGCAGCCUUCGGUGGCGCGAUAGCGCCAACGUUCUCAACUAUGACACGCAAAACGCGUGCUCCGUUGAAUGGAGUUUAUCAUG

Variants of: B1
Assay: polymerase ribozyme fitness, log enrichment relative to wild type (log ratio); higher = more active; in vitro selection for triplet polymerase activity
Summary of the method: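 PCR was used to build mutant libraries for each subunit of a heterodimeric triplet polymerase ribozyme, which were then transcribed. A single in vitro selection round, in triplicate, used a frozen incubation at −7 °C and recovered extended constructs by gel excision, streptavidin beads and RT-PCR. Fitness is the logarithm of genotype enrichment relative to wild-type enrichment, averaged over replicates with inverse-variance weights. The logarithm is base 2, and after Illumina sequencing only genotypes with ≥10 input reads and ≥1 read per output were kept.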

Variant | polymerase ribozyme fitness (log ratio)
A12G U44A A52G C85A C118U | ≤ -4.2
G11C A22C G50U U56A C96A G141A | -3.94
G11A C96U C116U | -1.68
A12C C105G | -2.6
G11A G59C | -0.989
G11C A16U G42U A113C | ≤ -4.2
A12G U144A | 1.44
A12U C36U U61G G67A U82G A106G A138U | -4.08
G11U A97G C103A U146A | -4.09
A12C G59A C75U C114U A150C | ≤ -4.2
A12G A17C G50C C63G C96U | -0.474
C10U U15G G58U A73G G83A A91C C95U U134C | ≤ -4.2
A12C U56A G88U | -3.41
U13G A37U C76G G84U A107U C123U U139G | ≤ -4.2
C10U U33A A49G C76U G81A A98G U102C A137C G140U | ≤ -4.2
G11U U31C U53A A66G C85A C87A | ≤ -4.2
A12U C85U C99G | -1.04
A12C A22G C54A G70U G100A C116G G117A U135G | ≤ -4.2
A12U C96A | -0.787
U13C A16G A19C U56A G136U U145G | -3.34
A12C A37C G50A C79G A98G | ≤ -4.2

Variant | polymerase ribozyme fitness (log ratio)
U13A A24G C27U A39C G50A G84U | ≤ -4.2
U13C C27A C43A G86U | ≤ -4.2
G11A | -0.693
G11C | -1.36
G11U | -0.242
G11U A60C C76U | -3.53
G11U G58C G84U A97U | -2.86
G11C A120U | -2.55
A12C C57A | -0.21
A12G A41G | 0.519
U13G A19U A22C G46C G81C C95U G140C | ≤ -4.2
A12U A24G A49C C57U A73G G86U | ≤ -4.2
A12U C105G C118A | -2.62
A12U C38A G59U C87A A97U | ≤ -4.2
A12U C27G A41G C87U A91G G140U | ≤ -4.2
G11C A30U U82C | ≤ -4.2
U13C A52G G84A | -1.1
A12U A120C | -0.776
A12G A19G A41C C95U G126A | -1.94
A12G U44G A60G G65C C114G | ≤ -4.2
A12U A49U A52C G67A C72A C85A G86C A119U | ≤ -4.2

Variant | polymerase ribozyme fitness (log ratio)
G11C C36G U56A C57U G59A C96G | ≤ -4.2
A12G A23U U56A C93G | ≤ -4.2
A12U A17U C18U G46U C51U A52U C75A G84C G100U C105U C118G A120U U134A A137G | ≤ -4.2
U13G A23U C35A C93U C99U U127G | ≤ -4.2
U13G A40C A73G C85U | -2.84
A12U A28G U55A C63U C96G G100A | ≤ -4.2
G11C C38G C87A C95U G100U C105U C118A C129G G133U | ≤ -4.2
A12C A41U C75U A122C C125U | -3.38
A12U C32A A41C C103U | ≤ -4.2
U13A A41G C85A A106U | -4.16
A12U U55A | -0.315
A12G G58A U148C | -1.8
G11C G46U U55A C87U C93U U127G A138C U145A | ≤ -4.2
A12G U13C C14A A41C A110U A119G G133A G140U U145G | ≤ -4.2
G11U G70U G83C A122G G143C | ≤ -4.2
A12G A19C A29U C129G | ≤ -4.2
G11C C76A | -1.78
A12G C35A G74A U101A A147U | ≤ -4.2
A12C U102C A138C | ≤ -4.2
A12U C38U C129G | ≤ -4.2
U13G A47U G50A C51U U55A G81C A137U C149A | ≤ -4.2

Variant | polymerase ribozyme fitness (log ratio)
U13A A20G C63G A91U G136C | ≤ -4.2
A12C C35G U56G G80A G81C G100C C116U U135C | ≤ -4.2
G11C A47U G68C C85A C95A A106G U134C A150G | ≤ -4.2
U13G A23U A37C G83A C96U | ≤ -4.2
A12G C57A G58A G81A C85U A91G A119G | -3.03
A12U U55C A137C | -4.12
U13G A23U A26C C36A C57A G86U C95U A121C | ≤ -4.2
A12G G143U | -2.62
A12G A16U G42C C75U C129U | ≤ -4.2
A12U G126A | -0.204
A12G C75G A119C | -3.34
G11C U33A U44C C76A A89U C95U A122C C123U G133A | ≤ -4.2
G11C C93A | -3.87
A12U G48U C51A G58C U61G C114U | ≤ -4.2
G11A G83A G94U G128U U145G | ≤ -4.2
U13G A49U C57U C87G C118U U139C U151A | ≤ -4.2
G11A A12G A52G U56A G81U | -2.09
A12C C43A C57A G84A U139G A147U | ≤ -4.2
A12G U33A A64C G92A G124U | -4
U13C A22G U61A G83A | -3.83
